T1: binding of LAG-3 to MHC class II molecules (293T-hLAG-3 cells / Raji cells) (Homo sapiens, UniProt P18627)
T1 construct: expressed in transfected cells; host or cells: 293T cells, transient transfection (Lipofectamine 2000)
T1 sequence (P18627 23-525): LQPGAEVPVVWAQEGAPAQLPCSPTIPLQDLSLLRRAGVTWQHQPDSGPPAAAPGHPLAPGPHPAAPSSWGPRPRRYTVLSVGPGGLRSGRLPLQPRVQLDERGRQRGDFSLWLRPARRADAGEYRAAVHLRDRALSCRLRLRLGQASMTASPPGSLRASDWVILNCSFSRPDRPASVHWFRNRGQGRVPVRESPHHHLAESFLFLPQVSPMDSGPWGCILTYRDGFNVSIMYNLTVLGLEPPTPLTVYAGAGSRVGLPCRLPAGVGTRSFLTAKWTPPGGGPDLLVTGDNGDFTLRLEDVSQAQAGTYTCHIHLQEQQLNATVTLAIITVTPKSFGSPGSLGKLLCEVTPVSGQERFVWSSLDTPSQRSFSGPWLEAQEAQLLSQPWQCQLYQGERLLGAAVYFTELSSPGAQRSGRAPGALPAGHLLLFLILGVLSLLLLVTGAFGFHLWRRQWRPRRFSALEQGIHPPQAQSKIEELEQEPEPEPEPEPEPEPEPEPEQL


Experiments:
[1] = target: T1, binding of LAG-3 to MHC class II molecules (293T-hLAG-3 cells / Raji cells); assay: 293T-hLAG-3/Raji cell adhesion test; format: cell-based; settings: 10 μg/mL
Source text: In the LAG-3/MHC class II binding test according to Example 2)-3, the binding of the secondary antibody Anti-Human IgG PE conjugate for detecting binding of LAG-3-Fc to Raji cells could be inhibited by steric hindrance caused by binding of the anti-LAG-3 antibody to LAG-3-Fc, and thus the possibility of apparently showing a low fluorescence intensity cannot be completely excluded, despite the antibody not actually directly inhibiting the binding of LAG-3/MHC class II. Therefore, as an evaluation system without using a secondary antibody for detection, the following 293T-hLAG-3/Raji cell adhesion test system was constructed to evaluate the antibody.
Human LAG-3 expression plasmid pcDNA3.1/hLAG-3 was introduced into 293T cells using Lipofectamine 2000 (manufactured by Life Technologies Corp.), and the cells were inoculated onto a BioCoat poly-D-lysine-coated 96-well microplate (manufactured by Becton, Dickinson and Company) and cultured overnight. Meanwhile, Raji cells were labeled in a medium (RPMI1640 containing 10% FBS) with fluorescent dye BCECF-AM (manufactured by DOJINDO LABORATORIES, used at 10 μM) at 37° C. for 1 hour, followed by washing and then suspending in a medium to 1.6×10^6 cells/mL. After the transfection, the medium of the cells (293T-hLAG-3 cells) cultured overnight was removed, and 50 μL/well of a medium and 25 μL/well of an antibody solution were added thereto, followed by pre-incubation at 37° C. for 30 minutes. Thereafter, 25 μL/well of the BCECF-AM labeled Raji cells was added thereto, followed by centrifugation at 900 rpm for 30 seconds and incubation at 37° C. for 1 hour. After the reaction, the well was washed with medium two to three times to remove nonadherent cells, and the cells were lysed in 100 µL/well of a Tris buffer (25 mM, pH 8.0) containing 0.1% NP-40, to measure the fluorescence intensity of the well with a plate reader (ENVISION: manufactured by PerkinElmer Inc). The percentage of inhibition was calculated by the following formula.
Percentage of inhibition (%)=100−(A−B)/(C−B)×100 • A: Fluorescence intensity of each sample well • B: Fluorescence intensity of background
When adding the Raji cells and the antibody, a medium was added thereto. Except for that, the same operation as in the sample well was performed. • C: Fluorescence intensity of maximum binding
When adding the antibody, a medium was added thereto.

[2] = target: T2, binding of LAG-3 to MHC class II molecules (Homo sapiens, UniProt P18627); assay: LAG-3/MHC class II binding test (LAG-3-Fc binding to Raji cells, flow cytometry); settings: rat antibodies evaluated at 10 μg/mL
T2 construct: purchased R&D Systems, Inc
Protocol: This was conducted according to a previous report (Non Patent Literature 8). That is, 20 μL/well of LAG-3-Fc (manufactured by R&D Systems, Inc.) diluted with RPMI1640 containing 10% FBS to 25 nM was added to a 96-well U-bottom microplate, and 20 μL/well of the hybridoma culture supernatant was added thereto, followed by stirring and standing at 4° C. for 20 minutes. Then, 10 µL/well (2.5×10^5 cells/well) of Raji cells, which endogenously highly express MHC class II molecules, was added thereto, followed by stirring and standing at 4° C. for a further 30 minutes. The cells were washed twice with PBS or a FACS buffer, then an Anti-Human IgG PE conjugate (manufactured by Jackson ImmunoResearch Laboratories, Inc.) diluted 200-fold with a FACS buffer was added thereto for suspension, followed by standing at 4° C. for 20 minutes. After washing with PBS or a FACS buffer, the cells were resuspended in PBS containing 1 to 2% paraformaldehyde, followed by detection using a flow cytometer (CantoII: manufactured by Becton, Dickinson and Company or FC500: manufactured by Beckman Coulter Inc). The data was analyzed using FlowJo (manufactured by Tree Star Inc.), and the percentage of inhibition was calculated by the following formula. Percentage of inhibition (%)=100−(A−B)/(C−B)×100 • A: Mean fluorescence intensity of each sample well • B: Mean fluorescence intensity of background
When adding LAG-3-Fc and the antibody, 20 μL of a medium was added each time. Except for that, the same operation as in the sample well was performed. • C: Mean fluorescence intensity of maximum binding
When adding the antibody, 20 μL of a medium was added thereto.

T2 sequence (P18627 with tags, fused parts or gaps limits assumed): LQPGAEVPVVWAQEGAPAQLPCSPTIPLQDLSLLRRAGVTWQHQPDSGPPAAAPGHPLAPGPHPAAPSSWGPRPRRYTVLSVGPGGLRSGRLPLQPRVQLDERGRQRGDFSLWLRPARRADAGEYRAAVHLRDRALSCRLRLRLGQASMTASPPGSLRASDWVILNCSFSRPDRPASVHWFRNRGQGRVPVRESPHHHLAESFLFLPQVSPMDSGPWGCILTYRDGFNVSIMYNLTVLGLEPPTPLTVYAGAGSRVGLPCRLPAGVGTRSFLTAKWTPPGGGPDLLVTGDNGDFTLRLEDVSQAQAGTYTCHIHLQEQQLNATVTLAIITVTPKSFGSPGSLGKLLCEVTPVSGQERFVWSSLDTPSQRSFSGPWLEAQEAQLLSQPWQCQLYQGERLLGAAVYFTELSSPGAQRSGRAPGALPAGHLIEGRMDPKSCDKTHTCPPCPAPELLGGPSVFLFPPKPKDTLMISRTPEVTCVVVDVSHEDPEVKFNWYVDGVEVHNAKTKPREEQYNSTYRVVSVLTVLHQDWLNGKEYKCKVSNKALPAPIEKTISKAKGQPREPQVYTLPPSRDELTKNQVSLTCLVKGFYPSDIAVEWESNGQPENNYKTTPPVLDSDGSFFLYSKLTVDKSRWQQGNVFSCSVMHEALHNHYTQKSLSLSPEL

Molecule | inhibitory activity in the 293T-hLAG-3/Raji cell adhesion test [1] | inhibitory activity in the LAG-3/MHC class II binding test [2]
rLA1264: anti-human LAG-3 rat monoclonal antibody; heavy chain variable region SEQ ID No: 18, light chain variable region SEQ ID No: 20 (antibody, listed as Rattus norvegicus, V domains shown) VH: EVQLVESGGGLVQPGRSLKLSCAASGFTFSSYYMAWVRQAPTKGLEWVAYISNGGYSTYYRDSVKGRFTISRENAKSTLYLQMDSLRSEDTATYYCTITDHSGYRFTYWGQGTLVTVSS VL: DIQMTQSPSLLSASVGDRVTLSCKASQSIYNSLAWYQQKLGEAPKLLIYDANSLQTGIPSRFSGSGSGTDFTLTISSLQPEDVATYFCQKYYSGNTFGAGTKLELKRA | almost no inhibitory activity | almost no inhibitory activity
rLA204: anti-human LAG-3 rat monoclonal antibody; heavy chain variable region SEQ ID No: 2, light chain variable region SEQ ID No: 4 (antibody, listed as Rattus norvegicus, V domains shown) VH: EVELVESGGGLVQPGRSMKLSCAASGFTFRTYGMAWVRQAPTKGLEWVASISTGGGSTYYRDSVKGRFTISRDNAKSTLYLQMDSLRSEDTATYYCTTDLINYPGIGGFAFWGQGTLVTVSS VL: NIVMTQSPKSMSISVGDRVTMNCKASQNVYNNIAWYQQKPGKSPKLLIYYASNRYTGVPDRFTGSGSGTDFTLTIHSVQAEDAAFYYCQRLYNSPPTFGGGTKLELKRA | almost no inhibitory activity | almost no inhibitory activity
rLA225: anti-human LAG-3 rat monoclonal antibody; heavy chain variable region SEQ ID No: 10, light chain variable region SEQ ID No: 12 (antibody, listed as Rattus norvegicus, V domains shown) VH: EVQLVESGGGLVQPGRSMKLSCVASGFTFSNYYMAWVRQAPTKGLEWVASISTGGGNTYYRDSVKGRFTISRDNAKSTLYLQMDSLRSEDTATYYCARPPYGYNYGWFTYWGQGTLVTVSS VL: DIQMTQSPASLSASLGETVTIECRASEDIHNGLVWYQQKPGKSPQLLIYNANSMHTGVPSRFSGSGSGTQYSLKINSLQSEDVASYFCQQYYNYPRTFGGGTKLELKRA | almost no inhibitory activity | almost no inhibitory activity
rLA869: anti-human LAG-3 rat monoclonal antibody; heavy chain variable region SEQ ID No: 14, light chain variable region SEQ ID No: 16 (antibody, listed as Rattus norvegicus, V domains shown) VH: EVQLVESGGGLVQPGRSLKLSCAASGFTYRTYVMAWVRQGPTQGLEWVASISTGGVSTYYRDSVKGRFTISRDNAKNTLYLQMDSLRSEDTATYYCAKDMLNGYNSQGLFDYWGQGVMVTVSS VL: NIVMTQSPKSMSISVGDRVTMNCRASQNVDNTIAWYQQKPGQSPKLLIYFASDRYTGVPDRFTGGGYGTDFTLTINSVQAEDAAFYYCQRIYNSPLTFGSGTKLEIRRA | almost no inhibitory activity | almost no inhibitory activity
rLA212: anti-human LAG-3 rat monoclonal antibody; heavy chain variable region SEQ ID No: 6, light chain variable region SEQ ID No: 8 (antibody, listed as Rattus norvegicus, V domains shown) VH: EVQLVESGGGLVQPGRSLKLSCAASGFTYRSYVMAWVRQAPTRGLEWVASISTGGGNTYYRDSVKGRFTISRDNAKNTLYLQMDSLRSEDTATYYCAEDMSNSGYGLFDYWGQGVMVTVSS VL: NIVMTQSPKSMSISVGDRVTMNCKAGQNVDNNIAWYQKKPGQSPKLLIYYASNRNTGVPDRFTGGGYGTDFTLTINSVQAEDAAFYYCQRISNSPYTFGAGTELELKRA | almost no inhibitory activity | almost no inhibitory activity

— patent publication US12145987B2, “Method for depleting cytotoxic T cells using an anti-LAG-3 antibody composition” (Daiichi Sankyo Company, Limited, priority 2017, dated 2024)
